According to patent US20180291107A1 (Eli Lilly, published 2018):

T1: mouse CSF-1R (mouse, UniProt P09581 20-511, limits assumed)
T1 construct: also called murine target protein (of the CSF-1R antibody); murine CSF-1R
T1 sequence (looked up): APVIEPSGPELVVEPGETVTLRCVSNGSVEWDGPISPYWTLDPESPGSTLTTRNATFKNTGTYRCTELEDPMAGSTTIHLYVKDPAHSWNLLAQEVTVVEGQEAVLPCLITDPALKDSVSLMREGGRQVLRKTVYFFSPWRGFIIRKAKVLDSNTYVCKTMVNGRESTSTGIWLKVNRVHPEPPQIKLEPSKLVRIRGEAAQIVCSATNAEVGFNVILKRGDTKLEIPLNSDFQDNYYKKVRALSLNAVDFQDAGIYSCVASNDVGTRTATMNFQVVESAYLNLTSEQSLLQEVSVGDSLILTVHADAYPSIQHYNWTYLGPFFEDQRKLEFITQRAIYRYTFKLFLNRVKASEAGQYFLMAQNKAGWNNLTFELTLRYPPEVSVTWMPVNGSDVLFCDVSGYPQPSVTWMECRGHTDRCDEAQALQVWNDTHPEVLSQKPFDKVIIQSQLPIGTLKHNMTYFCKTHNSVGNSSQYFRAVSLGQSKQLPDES


Tests used:
[1] = target: T1, mouse CSF-1R; assay: not described
[2] = target: T2, mouse PD-L1 (mouse, UniProt Q9EP73 19-238, limits assumed); assay: not described
T2 construct: also called murine target protein (of the PD-L1 antibody); murine PD-L1
T2 sequence (Q9EP73 19-238 limits assumed): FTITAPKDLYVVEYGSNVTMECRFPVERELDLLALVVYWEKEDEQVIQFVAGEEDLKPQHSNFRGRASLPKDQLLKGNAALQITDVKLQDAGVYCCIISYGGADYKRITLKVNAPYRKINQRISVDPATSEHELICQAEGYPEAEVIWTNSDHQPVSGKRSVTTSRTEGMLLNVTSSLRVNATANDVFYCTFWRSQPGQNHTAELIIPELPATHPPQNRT

[3] = target: T3, Soluble human PD-L1-Fc fusion protein (human, UniProt Q9NZQ7 19-239, limits assumed); assay: SPR (Biacore T200), antibody immobilised, PD-L1-Fc as analyte, 37 C, 1:1 model
T3 construct: not shown: Fc part
T3 sequence (Q9NZQ7 19-239 limits assumed): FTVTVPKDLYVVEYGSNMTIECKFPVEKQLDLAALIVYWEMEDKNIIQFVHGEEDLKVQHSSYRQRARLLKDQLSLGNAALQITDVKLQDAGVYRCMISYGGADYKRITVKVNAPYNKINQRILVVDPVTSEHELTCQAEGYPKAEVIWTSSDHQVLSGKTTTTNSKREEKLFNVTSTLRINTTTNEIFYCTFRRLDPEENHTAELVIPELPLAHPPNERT
Description: The kinetics and equilibrium dissociation constant (KD) for human PD-L1 is determined for anti-PD-L1 antibodies of the present invention using surface plasmon resonance (Biacore).
Immobilization of anti-PD-L1 antibodies of the present invention as ligand on to sensor chip surface is performed at 25° C. Soluble human PD-L1-Fc fusion protein is injected as analyte at concentrations ranging from 0.0123 nM-9 nM. The analysis is performed at 37° C. The contact time for each sample is 180 sec at 30 μl/min. The dissociation time was 240-1500 seconds. The immobilized surface is regenerated for 18 seconds with 0.95 M NaCl/25 mM NaOH at […], and then stabilized for 30 seconds. Binding kinetics are analyzed using the Biacore T200 Evaluation software (Version 3.0). Data are referenced to a blank flow cell, and the data are fit to a 1:1 binding model.

| binding result [1] | binding result [2] | Kd [3] [nM] | Binder |
| --- | --- | --- | --- |
| binds |  |  | CS7 (antibody, V domains shown, Rat antibody generated from a hybridoma; also called IMC-CS7; rat anti-mouse CSF-1R antibody) VH: DRQMVESGGGLVRPGRSLKLSCAASGFTFSNYYMAWVRLAPSKGLEWVASISPSGDNTYYPDSVQGRFTISRDNAETTLYLQVDSLRSEDTATYYCATRHYGYSFFDYWGQGVLVTVSS VL: DTVLTQSPALAVSPGERVTISCRASESVSTLIHWYQQKPGQQPKLLIFLASHLESGVPARFSGSGSGTDFTFTIDPVEADDTATYYCQQSWNDPPTFGGGTKLELK |
| no binding |  |  | Antibody 1 (antibody, human IgG1, kappa, V domains shown, also called Anti-CSF-1R antibody) VH: QDQLVESGGGVVQPGRSLRLSCAASGFTFSSYGMHWVRQAPGEGLEWVAVIWYDGSNKYYADSVKGRFTISRDNSKNTLYLQMNSLRAEDTAVYYCARGDYEVDYGMDVWGQGTTVTVAS VL: AIQLTQSPSSLSASVGDRVTITCRASQGISNALAWYQQKPGKAPKLLIYDASSLESGVPSRFSGSGSGTDFTLTISSLQPEDFATYYCQQFNSYPWTFGQGTKVEIKR |
|  | no binding | 0.082 | Antibody A (antibody, human IgG1, lambda, V domains shown, also called Anti-PD-L1 antibody) VH: QVQLVQSGAEVKKPGSSVKVSCKASGGTFSSYAISWVRQAPGQGLEWMGGIIPIFGTANYAQKFQGRVTITADKSTSTAYMELSSLRSEDTAVYYCARSPDYSPYYYYGMDVWGQGTTVTVSS VL: QSVLTQPPSASGTPGQRVTISCSGSSSNIGSNTVNWYQQLPGTAPKLLIYGNSNRPSGVPDRFSGSKSGTSASLAISGLQSEDEADYYCQSYDSSLSGSVFGGGIKLTVLG |
